The chains are these.
B1: GA-binding protein alpha chain, residues 172 to 250; numbered along this chain, Q06546 (parent)
chain: GYRKEQERLGIPYDPIQWSTDQVLHWVVWVMKEFSMTDIDLTTLNISGRELCSLNQEDFFQRVPRGEILWSHLELLRKY

± gives the uncertainty stated by the source.

These results are taken from the Human Domainome abundance scans (Beltran et al. 2025).

The variants in this data set derive from B1. The experiment in a line: abundance fitness (aPCA) (normalised: wild type 0, dead -1); higher = more abundant; growth selection in yeast, the domain comes from the species named. Particulars: Homo sapiens.
Consider GYRKEQERLGIPYDPIQWSTDQVLHWVVWVMKEFSMTDIDPTTLNISGRELCSLNQEDFFQRVPRGEILWSHLELLRKY, for which the abundance fitness is -0.028 ± 0.038.
The value for GYRKEQERLGIPYDPIQWSTDQVLHWVVWVMKEFSMTDIDETTLNISGRELCSLNQEDFFQRVPRGEILWSHLELLRKY was -0.153 ± 0.059; that for GYRKEQERLGIPYDPIQWSTDQVLHWVVWVMKEFSMTDIDNTTLNISGRELCSLNQEDFFQRVPRGEILWSHLELLRKY was -0.258 ± 0.088.
Consider GYRKEQERLGIPYDPIQWSTDQVLHWVVWVMKEFSMTDIDSTTLNISGRELCSLNQEDFFQRVPRGEILWSHLELLRKY, for which the abundance fitness was -0.127 ± 0.042.
The value for GYRKEQERLGIPYDPIQWSTDQVLHWVVWVMKEFSMTDIDATTLNISGRELCSLNQEDFFQRVPRGEILWSHLELLRKY was -0.049 ± 0.047; that for GYRKEQERLGIPYDPIQWSTDQVLHWVVWVMKEFSMTDIDWTTLNISGRELCSLNQEDFFQRVPRGEILWSHLELLRKY was -0.132 ± 0.048; that for GYRKEQERLGIPYDPIQWSTDQVLHWVVWVMKEFSMTDIDFTTLNISGRELCSLNQEDFFQRVPRGEILWSHLELLRKY was -0.094 ± 0.059.
The figure for GYRKEQERLGIPYDPIQWSTDQVLHWVVWVMKEFSMTDIDHTTLNISGRELCSLNQEDFFQRVPRGEILWSHLELLRKY is -0.063 ± 0.068; for GYRKEQERLGIPYDPIQWSTDQVLHWVVWVMKEFSMTDIDMTTLNISGRELCSLNQEDFFQRVPRGEILWSHLELLRKY it is -0.008 ± 0.055; for GYRKEQERLGIPYDPIQWSTDQVLHWVVWVMKEFSMTDIDRTTLNISGRELCSLNQEDFFQRVPRGEILWSHLELLRKY it is -0.191 ± 0.033.
The figure for GYRKEQERLGIPYDPIQWSTDQVLHWVVWVMKEFSMTDIDGTTLNISGRELCSLNQEDFFQRVPRGEILWSHLELLRKY is -0.134 ± 0.033.
GYRKEQERLGIPYDPIQWSTDQVLHWVVWVMKEFSMTDIDCTTLNISGRELCSLNQEDFFQRVPRGEILWSHLELLRKY: the abundance fitness was -0.056 ± 0.055.
The figure for GYRKEQERLGIPYDPIQWSTDQVLHWVVWVMKEFSMTDIDITTLNISGRELCSLNQEDFFQRVPRGEILWSHLELLRKY is 0.006 ± 0.077; for GYRKEQERLGIPYDPIQWSTDQVLHWVVWVMKEFSMTDIDQTTLNISGRELCSLNQEDFFQRVPRGEILWSHLELLRKY it is -0.117 ± 0.056.
The figure for GYRKEQERLGIPYDPIQWSTDQVLHWVVWVMKEFSMTDIDYTTLNISGRELCSLNQEDFFQRVPRGEILWSHLELLRKY is -0.025 ± 0.1.
The figure for GYRKEQERLGIPYDPIQWSTDQVLHWVVWVMKEFSMTDIDTTTLNISGRELCSLNQEDFFQRVPRGEILWSHLELLRKY is -0.061 ± 0.057; for GYRKEQERLGIPYDPIQWSTDQVLHWVVWVMKEFSMTDIDDTTLNISGRELCSLNQEDFFQRVPRGEILWSHLELLRKY it is -0.386 ± 0.095.
GYRKEQERLGIPYDPIQWSTDQVLHWVVWVMKEFSMTDIDVTTLNISGRELCSLNQEDFFQRVPRGEILWSHLELLRKY: the abundance fitness was -0.024 ± 0.038.
The figure for GYRKEQERLGIPYDPIQWSTDQVLHWVVWVMKEFSMTYIDLTTLNISGRELCSLNQEDFFQRVPRGEILWSHLELLRKY is -0.261 ± 0.055; for GYRKEQERLGIPYDPIQWSTDQVLHWVVWVMKEFSMTDMDLTTLNISGRELCSLNQEDFFQRVPRGEILWSHLELLRKY it is -0.021 ± 0.064.
For the variant GYRKEQERLGIPYDPIQWSTDQVLHWVVWVMKEFSMTDQDLTTLNISGRELCSLNQEDFFQRVPRGEILWSHLELLRKY, the abundance fitness was -0.22 ± 0.06.
The figure for GYRKEQERLGIPYDPIQWSTDQVLHWVVWVMKEFSMTDCDLTTLNISGRELCSLNQEDFFQRVPRGEILWSHLELLRKY is -0.042 ± 0.062; for GYRKEQERLGIPYDPIQWSTDQVLHWVVWVMKEFSMTDSDLTTLNISGRELCSLNQEDFFQRVPRGEILWSHLELLRKY it is -0.275 ± 0.042.
The figure for GYRKEQERLGIPYDPIQWSTDQVLHWVVWVMKEFSMTDVDLTTLNISGRELCSLNQEDFFQRVPRGEILWSHLELLRKY is 0.037 ± 0.034.
The value for GYRKEQERLGIPYDPIQWSTDQVLHWVVWVMKEFSMTDHDLTTLNISGRELCSLNQEDFFQRVPRGEILWSHLELLRKY was -0.06 ± 0.076; that for GYRKEQERLGIPYDPIQWSTDQVLHWVVWVMKEFSMTDFDLTTLNISGRELCSLNQEDFFQRVPRGEILWSHLELLRKY was -0.011 ± 0.098.
For the variant GYRKEQERLGIPYDPIQWSTDQVLHWVVWVMKEFSMTDGDLTTLNISGRELCSLNQEDFFQRVPRGEILWSHLELLRKY, the abundance fitness was -0.185 ± 0.036.
As for GYRKEQERLGIPYDPIQWSTDQVLHWVVWVMKEFSMTDADLTTLNISGRELCSLNQEDFFQRVPRGEILWSHLELLRKY, the abundance fitness was -0.192 ± 0.046.
The figure for GYRKEQERLGIPYDPIQWSTDQVLHWVVWVMKEFSMTDRDLTTLNISGRELCSLNQEDFFQRVPRGEILWSHLELLRKY is -0.281 ± 0.032; for GYRKEQERLGIPYDPIQWSTDQVLHWVVWVMKEFSMTDPDLTTLNISGRELCSLNQEDFFQRVPRGEILWSHLELLRKY it is -0.17 ± 0.045; for GYRKEQERLGIPYDPIQWSTDQVLHWVVWVMKEFSMTDKDLTTLNISGRELCSLNQEDFFQRVPRGEILWSHLELLRKY it is -0.244 ± 0.093.
The figure for GYRKEQERLGIPYDPIQWSTDQVLHWVVWVMKEFSMTDNDLTTLNISGRELCSLNQEDFFQRVPRGEILWSHLELLRKY is -0.07 ± 0.091.
The value for GYRKEQERLGIPYDPIQWSTDQVLHWVVWVMKEFSMTDEDLTTLNISGRELCSLNQEDFFQRVPRGEILWSHLELLRKY was -0.118 ± 0.077.
Consider GYRKEQERLGIPYDPIQWSTDQVLHWVVWVMKEFSMTDYDLTTLNISGRELCSLNQEDFFQRVPRGEILWSHLELLRKY, for which the abundance fitness is -0.317 ± 0.1.
The value for GYRKEQERLGIPYDPIQWSTDQVLHWVVWVMKEFSMTDDDLTTLNISGRELCSLNQEDFFQRVPRGEILWSHLELLRKY was -0.288 ± 0.12; that for GYRKEQERLGIPYDPIQWSTDQVLHWVVWVMKEFSMTDWDLTTLNISGRELCSLNQEDFFQRVPRGEILWSHLELLRKY was -0.145 ± 0.028; that for GYRKEQERLGIPYDPIQWSTDQVLHWVVWVMKEFSMTDTDLTTLNISGRELCSLNQEDFFQRVPRGEILWSHLELLRKY was -0.035 ± 0.057.
The figure for GYRKEQERLGIPYDPIQWSTDQVLHWVVWVMKEFSMTDIDLQTLNISGRELCSLNQEDFFQRVPRGEILWSHLELLRKY is -0.032 ± 0.054.
For GYRKEQERLGIPYDPIQWSTDQVLHWVVWVMKEFSMTDIDLCTLNISGRELCSLNQEDFFQRVPRGEILWSHLELLRKY, the abundance fitness was -0.051 ± 0.047.
With GYRKEQERLGIPYDPIQWSTDQVLHWVVWVMKEFSMTDIDLKTLNISGRELCSLNQEDFFQRVPRGEILWSHLELLRKY, the abundance fitness was -0.131 ± 0.067.
The value for GYRKEQERLGIPYDPIQWSTDQVLHWVVWVMKEFSMTDIDLRTLNISGRELCSLNQEDFFQRVPRGEILWSHLELLRKY was -0.014 ± 0.031; that for GYRKEQERLGIPYDPIQWSTDQVLHWVVWVMKEFSMTDIDLITLNISGRELCSLNQEDFFQRVPRGEILWSHLELLRKY was -0.181 ± 0.063.
As to GYRKEQERLGIPYDPIQWSTDQVLHWVVWVMKEFSMTDIDLNTLNISGRELCSLNQEDFFQRVPRGEILWSHLELLRKY, the abundance fitness was -0.083 ± 0.12.
The figure for GYRKEQERLGIPYDPIQWSTDQVLHWVVWVMKEFSMTDIDLYTLNISGRELCSLNQEDFFQRVPRGEILWSHLELLRKY is -0.1 ± 0.083.
Take GYRKEQERLGIPYDPIQWSTDQVLHWVVWVMKEFSMTDIDLSTLNISGRELCSLNQEDFFQRVPRGEILWSHLELLRKY: the abundance fitness is -0.011 ± 0.034.
Take GYRKEQERLGIPYDPIQWSTDQVLHWVVWVMKEFSMTDIDLDTLNISGRELCSLNQEDFFQRVPRGEILWSHLELLRKY: the abundance fitness is -0.011 ± 0.069.
The value for GYRKEQERLGIPYDPIQWSTDQVLHWVVWVMKEFSMTDIDLATLNISGRELCSLNQEDFFQRVPRGEILWSHLELLRKY was -0.004 ± 0.04; that for GYRKEQERLGIPYDPIQWSTDQVLHWVVWVMKEFSMTDIDLLTLNISGRELCSLNQEDFFQRVPRGEILWSHLELLRKY was -0.162 ± 0.035.
The value for GYRKEQERLGIPYDPIQWSTDQVLHWVVWVMKEFSMTDIDLHTLNISGRELCSLNQEDFFQRVPRGEILWSHLELLRKY was -0.075 ± 0.06.
The value for GYRKEQERLGIPYDPIQWSTDQVLHWVVWVMKEFSMTDIDLFTLNISGRELCSLNQEDFFQRVPRGEILWSHLELLRKY was -0.215 ± 0.058; that for GYRKEQERLGIPYDPIQWSTDQVLHWVVWVMKEFSMTDIDLVTLNISGRELCSLNQEDFFQRVPRGEILWSHLELLRKY was -0.122 ± 0.041; that for GYRKEQERLGIPYDPIQWSTDQVLHWVVWVMKEFSMTDIDLPTLNISGRELCSLNQEDFFQRVPRGEILWSHLELLRKY was -0.106 ± 0.037.
Take GYRKEQERLGIPYDPIQWSTDQVLHWVVWVMKEFSMTDINLTTLNISGRELCSLNQEDFFQRVPRGEILWSHLELLRKY: the abundance fitness was -0.043 ± 0.075.
The figure for GYRKEQERLGIPYDPIQWSTDQVLHWVVWVMKEFSMTDIPLTTLNISGRELCSLNQEDFFQRVPRGEILWSHLELLRKY is -0.111 ± 0.049.
With GYRKEQERLGIPYDPIQWSTDQVLHWVVWVMKEFSMTDIQLTTLNISGRELCSLNQEDFFQRVPRGEILWSHLELLRKY, the abundance fitness was -0.268 ± 0.082.
Turning to GYRKEQERLGIPYDPIQWSTDQVLHWVVWVMKEFSMTDIRLTTLNISGRELCSLNQEDFFQRVPRGEILWSHLELLRKY, the abundance fitness was -0.292 ± 0.032.
The value for GYRKEQERLGIPYDPIQWSTDQVLHWVVWVMKEFSMTDIYLTTLNISGRELCSLNQEDFFQRVPRGEILWSHLELLRKY was -0.698 ± 0.18.
The value for GYRKEQERLGIPYDPIQWSTDQVLHWVVWVMKEFSMTDIHLTTLNISGRELCSLNQEDFFQRVPRGEILWSHLELLRKY was -0.223 ± 0.096; that for GYRKEQERLGIPYDPIQWSTDQVLHWVVWVMKEFSMTDIALTTLNISGRELCSLNQEDFFQRVPRGEILWSHLELLRKY was -0.226 ± 0.037.
The figure for GYRKEQERLGIPYDPIQWSTDQVLHWVVWVMKEFSMTDITLTTLNISGRELCSLNQEDFFQRVPRGEILWSHLELLRKY is -0.263 ± 0.059.
Consider GYRKEQERLGIPYDPIQWSTDQVLHWVVWVMKEFSMTDICLTTLNISGRELCSLNQEDFFQRVPRGEILWSHLELLRKY, for which the abundance fitness is -0.281 ± 0.07.
For the variant GYRKEQERLGIPYDPIQWSTDQVLHWVVWVMKEFSMTDIGLTTLNISGRELCSLNQEDFFQRVPRGEILWSHLELLRKY, the abundance fitness was -0.239 ± 0.042.
The value for GYRKEQERLGIPYDPIQWSTDQVLHWVVWVMKEFSMTDIVLTTLNISGRELCSLNQEDFFQRVPRGEILWSHLELLRKY was -0.44 ± 0.039.
The figure for GYRKEQERLGIPYDPIQWSTDQVLHWVVWVMKEFSMTDIWLTTLNISGRELCSLNQEDFFQRVPRGEILWSHLELLRKY is -0.989 ± 0.12.
The figure for GYRKEQERLGIPYDPIQWSTDQVLHWVVWVMKEFSMTDIKLTTLNISGRELCSLNQEDFFQRVPRGEILWSHLELLRKY is -0.23 ± 0.066; for GYRKEQERLGIPYDPIQWSTDQVLHWVVWVMKEFSMTDIELTTLNISGRELCSLNQEDFFQRVPRGEILWSHLELLRKY it is -0.112 ± 0.05; for GYRKEQERLGIPYDPIQWSTDQVLHWVVWVMKEFSMTDIILTTLNISGRELCSLNQEDFFQRVPRGEILWSHLELLRKY it is -0.533 ± 0.1.
As for GYRKEQERLGIPYDPIQWSTDQVLHWVVWVMKEFSMTDIMLTTLNISGRELCSLNQEDFFQRVPRGEILWSHLELLRKY, the abundance fitness was -0.543 ± 0.058.
The value for GYRKEQERLGIPYDPIQWSTDQVLHWVVWVMKEFSMTDISLTTLNISGRELCSLNQEDFFQRVPRGEILWSHLELLRKY was -0.124 ± 0.032.
